The record followed here is article PMC5153404.

The target of test [1] is Recombinant mature human gC1qR (residues 74-282) (UniProt Q07021). Put plainly: ELISA. Conditions: 2.5 μg/well gh protein, 90 min at 37°C and 90 min at 4°C, parent: est. 100, read off a plot.
For test [2] the target is unchanged. Put plainly: ELISA; gC1qR coated at 0.25, 0.5 and 1 μg/well; 2.5 μg/well of gh module or substitution mutant; 90 min at 37°C and 90 min at 4°C; detected with anti-MBP monoclonal antibody. A general note: An ELISA detects its analyte on a solid surface through an enzyme-linked reagent.

Chain of Recombinant mature human gC1qR (residues 74-282) (Q07021 74-282): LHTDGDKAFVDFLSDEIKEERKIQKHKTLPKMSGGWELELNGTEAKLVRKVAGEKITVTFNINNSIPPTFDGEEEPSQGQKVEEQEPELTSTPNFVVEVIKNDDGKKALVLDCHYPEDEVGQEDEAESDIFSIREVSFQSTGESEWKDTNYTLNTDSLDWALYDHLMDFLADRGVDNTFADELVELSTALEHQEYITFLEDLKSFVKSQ
Chain of Recombinant globular head module of the human C1q B chain (ghB), MBP fusion (from UniProt P02746) T175L (P02746 117-253, stated change not applied): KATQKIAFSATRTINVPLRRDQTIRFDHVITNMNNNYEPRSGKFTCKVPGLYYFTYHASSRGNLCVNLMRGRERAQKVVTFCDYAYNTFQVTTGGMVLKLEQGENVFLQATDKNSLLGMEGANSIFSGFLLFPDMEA
Chain of Recombinant globular head module of the human C1q B chain (ghB), MBP fusion (from UniProt P02746) R129A (P02746 117-253, stated change not applied): as above
Chain of Recombinant globular head module of the human C1q C chain (ghC), MBP fusion (from UniProt P02747) L170E (P02747 115-245, stated change not applied): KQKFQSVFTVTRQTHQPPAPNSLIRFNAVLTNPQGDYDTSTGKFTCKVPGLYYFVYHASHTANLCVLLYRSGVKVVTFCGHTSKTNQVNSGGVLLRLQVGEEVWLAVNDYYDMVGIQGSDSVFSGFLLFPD
Chain of Recombinant globular head module of the human C1q C chain (ghC), MBP fusion (from UniProt P02747) R156E (P02747 115-245, stated change not applied): as above
Chain of Recombinant globular head module of the human C1q C chain (ghC), MBP fusion (from UniProt P02747) H101A (P02747 115-245, stated change not applied): as above

Take “Recombinant globular head module of the human C1q B chain (ghB), MBP fusion (from UniProt P02746) R129A”: the percent of parent in test [1] (0.25 μg/well gC1qR coated) worked out at 27 % binding; in test [1] (0.5 μg/well gC1qR coated) it was 33 % binding; in test [1] (1 μg/well gC1qR coated), 30 % binding.

On to “Recombinant globular head module of the human C1q B chain (ghB), MBP fusion (from UniProt P02746) T175L”, for which the results for the percent of parent in test [1] (0.25 μg/well gC1qR coated), in test [1] (0.5 μg/well gC1qR coated) and in test [1] (1 μg/well gC1qR coated) were 62 % binding, 56 % binding and 68 % binding, respectively.

For the substance “Recombinant globular head module of the human C1q C chain (ghC), MBP fusion (from UniProt P02747) H101A”, the percent of parent in test [1] (0.25 μg/well gC1qR coated) turned out to be 51 % binding; in test [1] (1 μg/well gC1qR coated) it was 79 % binding.

On to “Recombinant globular head module of the human C1q C chain (ghC), MBP fusion (from UniProt P02747) L170E”, for which the percent of parent in test [1] (0.25 μg/well gC1qR coated) came to 62 % binding; in test [1] (0.5 μg/well gC1qR coated), 91 % binding; in test [1] (1 μg/well gC1qR coated) it was 100 % binding.

In the case of “Recombinant globular head module of the human C1q C chain (ghC), MBP fusion (from UniProt P02747) R156E”, the figures for the percent of parent in test [1] (0.25 μg/well gC1qR coated), in test [1] (0.5 μg/well gC1qR coated) and in test [1] (1 μg/well gC1qR coated) were 81 % binding, 110 % binding and 110 % binding, respectively.

As to “ghA-R162A, MBP fusion (from UniProt P02745 23-245) (domain or fragment)”, in test [2], the percent reduction in binding against wild-type ghA is less than 70%.

On to “ghB-H117D, MBP fusion (from UniProt P02746 28-253) (domain or fragment)”, for which, in test [2], the percent reduction in binding against wild-type ghB worked out at 60%.
